Patent US20130005646A1 (Novo Nordisk, published 2013)
Starred links: 1 amine or outer side, 2 acyl side, 3 side chain; linkers in the order of their positions; H or OH if unused. Positions of bridges follow the written chain, without caps; N, C: chain ends. *: point of attachment. X1 = (S)‑4‑Carboxy‑4‑(19-carboxynonadecanoylamino)butyryl, O=C(O)CCCCCCCCCCCCCCCCCCC(=O)N[C@@H](CCC(=O)*)C(=O)O; C20 diacid = O=C(O)CCCCCCCCCCCCCCCCCCC(=O)*; γGlu = O=C(O)[C@H](CCC(=O)[*:2])N[*:1]

How the values were obtained:
Assay in all cases: cell-based or functional assay
[1] = target: T1, human calcitonin (a) receptor (human, UniProt P30988 25-474)
T1 sequence (looked up): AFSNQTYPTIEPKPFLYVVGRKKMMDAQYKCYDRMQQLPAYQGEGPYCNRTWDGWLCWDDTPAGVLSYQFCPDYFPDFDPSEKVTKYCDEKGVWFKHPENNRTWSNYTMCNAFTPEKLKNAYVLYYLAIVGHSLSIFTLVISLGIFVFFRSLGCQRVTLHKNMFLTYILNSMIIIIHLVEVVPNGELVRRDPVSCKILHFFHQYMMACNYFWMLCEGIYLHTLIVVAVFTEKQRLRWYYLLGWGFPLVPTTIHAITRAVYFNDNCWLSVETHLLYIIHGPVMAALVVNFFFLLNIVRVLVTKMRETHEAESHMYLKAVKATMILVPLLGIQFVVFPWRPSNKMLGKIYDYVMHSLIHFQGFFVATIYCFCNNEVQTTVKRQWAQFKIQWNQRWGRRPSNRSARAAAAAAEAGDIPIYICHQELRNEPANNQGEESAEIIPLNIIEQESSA

[2] = target: T2, rat amylin 3(a) receptor (rat calcitonin(a) receptor + rat RAMP3) (rat, UniProt P32214 25-516; Q9JJ73 23-147)
T2 sequence (looked up) 1: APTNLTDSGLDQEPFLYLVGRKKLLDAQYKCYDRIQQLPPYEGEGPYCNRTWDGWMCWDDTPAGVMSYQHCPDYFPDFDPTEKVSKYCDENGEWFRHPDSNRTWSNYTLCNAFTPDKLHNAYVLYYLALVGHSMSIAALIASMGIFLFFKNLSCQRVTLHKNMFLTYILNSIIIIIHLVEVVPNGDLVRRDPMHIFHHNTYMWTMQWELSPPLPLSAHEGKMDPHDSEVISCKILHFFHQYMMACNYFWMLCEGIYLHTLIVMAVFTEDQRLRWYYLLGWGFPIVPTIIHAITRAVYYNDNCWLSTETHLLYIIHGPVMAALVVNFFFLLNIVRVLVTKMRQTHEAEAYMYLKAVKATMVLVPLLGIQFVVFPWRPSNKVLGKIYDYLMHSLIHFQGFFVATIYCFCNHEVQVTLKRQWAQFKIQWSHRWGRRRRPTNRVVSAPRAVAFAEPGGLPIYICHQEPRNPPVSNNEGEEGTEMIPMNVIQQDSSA
T2 sequence (looked up) 2: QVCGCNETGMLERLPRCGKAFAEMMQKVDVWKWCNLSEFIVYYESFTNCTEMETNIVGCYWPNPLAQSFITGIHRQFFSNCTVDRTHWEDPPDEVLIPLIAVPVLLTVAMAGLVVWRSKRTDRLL

[3] = target: T3, human amylin 3(a) receptor (human calcitonin receptor + RAMP-3) (human, UniProt P30988 25-474; O60896 24-148)
T3 sequence (looked up) 1: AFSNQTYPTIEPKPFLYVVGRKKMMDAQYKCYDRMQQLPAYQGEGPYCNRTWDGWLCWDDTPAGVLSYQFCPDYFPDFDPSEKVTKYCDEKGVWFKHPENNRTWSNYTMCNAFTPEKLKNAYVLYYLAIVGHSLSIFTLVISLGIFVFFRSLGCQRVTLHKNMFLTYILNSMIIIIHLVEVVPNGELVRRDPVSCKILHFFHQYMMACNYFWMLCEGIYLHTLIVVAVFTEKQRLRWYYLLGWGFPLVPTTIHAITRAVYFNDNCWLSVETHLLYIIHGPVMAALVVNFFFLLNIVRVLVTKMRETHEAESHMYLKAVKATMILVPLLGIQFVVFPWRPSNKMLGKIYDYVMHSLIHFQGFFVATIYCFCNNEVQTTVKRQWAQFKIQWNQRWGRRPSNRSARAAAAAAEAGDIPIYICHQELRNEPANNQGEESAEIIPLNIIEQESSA
T3 sequence (looked up) 2: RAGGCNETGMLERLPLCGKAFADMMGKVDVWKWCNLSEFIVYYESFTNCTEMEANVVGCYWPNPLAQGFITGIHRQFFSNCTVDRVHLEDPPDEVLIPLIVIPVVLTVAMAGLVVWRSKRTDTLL

[4] = target: T4, rat calcitonin (a) receptor (rat, UniProt P32214 25-516)
T4 sequence (looked up): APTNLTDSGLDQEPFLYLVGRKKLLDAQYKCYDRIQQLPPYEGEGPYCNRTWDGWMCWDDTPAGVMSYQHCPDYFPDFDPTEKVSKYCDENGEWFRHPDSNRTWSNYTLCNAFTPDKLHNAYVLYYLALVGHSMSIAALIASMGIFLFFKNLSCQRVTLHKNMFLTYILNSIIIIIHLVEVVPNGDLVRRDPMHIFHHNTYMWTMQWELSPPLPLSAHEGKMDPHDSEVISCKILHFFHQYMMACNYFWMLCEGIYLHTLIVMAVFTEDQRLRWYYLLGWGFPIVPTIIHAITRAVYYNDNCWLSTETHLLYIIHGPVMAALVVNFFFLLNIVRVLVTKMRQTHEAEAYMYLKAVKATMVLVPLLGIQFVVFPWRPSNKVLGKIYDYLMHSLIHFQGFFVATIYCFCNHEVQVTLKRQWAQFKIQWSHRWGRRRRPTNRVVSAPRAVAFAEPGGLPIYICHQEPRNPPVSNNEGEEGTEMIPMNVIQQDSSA

B1: N-alpha-[(S)-4-Carboxy-4-(19-carboxynonadecanoylamino)butyryl]-Gly-[His1,Glu14,Arg17,Pro37]-pramlintide (peptide)
peptide: {C20 diacid-γGlu}-GHCNTATCATQRLAEFLRHSSNNFGPILPPTNVGSNTP-NH2
modifications: disulfide 3-8
SMILES: CC[C@H](C)[C@H](NC(=O)[C@@H]1CCCN1C(=O)CNC(=O)[C@H](Cc1ccccc1)NC(=O)[C@H](CC(N)=O)NC(=O)[C@H](CC(N)=O)NC(=O)[C@H](CO)NC(=O)[C@H](CO)NC(=O)[C@H](Cc1c[nH]cn1)NC(=O)[C@H](CCCNC(=N)N)NC(=O)[C@H](CC(C)C)NC(=O)[C@H](Cc1ccccc1)NC(=O)[C@H](CCC(=O)O)NC(=O)[C@H](C)NC(=O)[C@H](CC(C)C)NC(=O)[C@H](CCCNC(=N)N)NC(=O)[C@H](CCC(N)=O)NC(=O)[C@@H](NC(=O)[C@H](C)NC(=O)[C@@H]1CSSC[C@H](NC(=O)[C@H](Cc2c[nH]cn2)NC(=O)CNC(=O)CC[C@H](NC(=O)CCCCCCCCCCCCCCCCCCC(=O)O)C(=O)O)C(=O)N[C@@H](CC(N)=O)C(=O)N[C@@H]([C@@H](C)O)C(=O)N[C@@H](C)C(=O)N[C@@H]([C@@H](C)O)C(=O)N1)[C@@H](C)O)C(=O)N[C@@H](CC(C)C)C(=O)N1CCC[C@H]1C(=O)N1CCC[C@H]1C(=O)N[C@H](C(=O)N[C@@H](CC(N)=O)C(=O)N[C@H](C(=O)NCC(=O)N[C@@H](CO)C(=O)N[C@@H](CC(N)=O)C(=O)N[C@H](C(=O)N1CCC[C@H]1C(N)=O)[C@@H](C)O)C(C)C)[C@@H](C)O
With B1 the “CTa receptor human EC50” value [1] was 39.5 pM, the “Amylin receptor rat EC50” value [2] was 151 pM and the “Amylin receptor human EC50” value [3] was 25.5 pM. The “CTa receptor rat EC50” value [4] was 114 pM.

B2: N-alpha-[(S)-4-Carboxy-4-(19-carboxynonadecanoylamino)butyryl]-[His1,Glu14,Arg17,Pro37]-pramlintide (peptide)
peptide: X1-HCNTATCATQRLAEFLRHSSNNFGPILPPTNVGSNTP-NH2
modifications: disulfide 2-7
SMILES: CC[C@H](C)[C@H](NC(=O)[C@@H]1CCCN1C(=O)CNC(=O)[C@H](Cc1ccccc1)NC(=O)[C@H](CC(N)=O)NC(=O)[C@H](CC(N)=O)NC(=O)[C@H](CO)NC(=O)[C@H](CO)NC(=O)[C@H](Cc1c[nH]cn1)NC(=O)[C@H](CCCNC(=N)N)NC(=O)[C@H](CC(C)C)NC(=O)[C@H](Cc1ccccc1)NC(=O)[C@H](CCC(=O)O)NC(=O)[C@H](C)NC(=O)[C@H](CC(C)C)NC(=O)[C@H](CCCNC(=N)N)NC(=O)[C@H](CCC(N)=O)NC(=O)[C@@H](NC(=O)[C@H](C)NC(=O)[C@@H]1CSSC[C@H](NC(=O)[C@H](Cc2c[nH]cn2)NC(=O)CC[C@H](NC(=O)CCCCCCCCCCCCCCCCCCC(=O)O)C(=O)O)C(=O)N[C@@H](CC(N)=O)C(=O)N[C@@H]([C@@H](C)O)C(=O)N[C@@H](C)C(=O)N[C@@H]([C@@H](C)O)C(=O)N1)[C@@H](C)O)C(=O)N[C@@H](CC(C)C)C(=O)N1CCC[C@H]1C(=O)N1CCC[C@H]1C(=O)N[C@H](C(=O)N[C@@H](CC(N)=O)C(=O)N[C@H](C(=O)NCC(=O)N[C@@H](CO)C(=O)N[C@@H](CC(N)=O)C(=O)N[C@H](C(=O)N1CCC[C@H]1C(N)=O)[C@@H](C)O)C(C)C)[C@@H](C)O
B2 was tested, and the “CTa receptor human EC50” value [1] was 47.5 pM, the “Amylin receptor rat EC50” value [2] was 217 pM and the “Amylin receptor human EC50” value [3] was 32.5 pM. The “CTa receptor rat EC50” value [4] was 128 pM.
